Data on 139 substances can be found in the supplement of paper PMC12042874.

This data set can be described thus: amyloid nucleation score (Sup35N fusion, yeast selection) (log enrichment); library NNK1; higher = more nucleation; inactive = no reads after selection. A digest of the protocol: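 On medium lacking adenine and uracil, psi-negative yeast expressing peptides of 20 random codons fused to Sup35N were grown 7 days at 30°C after a 24-hour induction with 100 μM copper sulfate. Illumina sequencing of input and output plasmid inserts gave the reads, and sequences under 100 input reads were excluded. The nucleation score is the DiMSum log enrichment of output over input reads, centred on the mode score of non-aggregating sequences.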

± gives the uncertainty stated by the source.

CLWGILDEGRFGSWFNNFAS yielded an amyloid nucleation score of 0.467 ± 0.9.
SRLYVCFALSSLSISRNNYG registered an amyloid nucleation score of 3.11 ± 0.22.
The value for HCFPCLVVIV was 0.121 ± 0.36; that for RAAKF was -1.15 ± 0.58.
In turn, FIGGLHMALYDYPVEGSALA displayed an amyloid nucleation score of 0.622 ± 0.76.
Regarding MLTECSRFLNVFGVGEHEVN, the amyloid nucleation score was -0.162 ± 0.58.
On to WHMVKSVSTNIV, for which the amyloid nucleation score is -0.386 ± 0.58.
With GTGTAPGINPWLLDSFPAPV, the amyloid nucleation score is 0.378 ± 0.28.
HVKACLVVASYP registered an amyloid nucleation score of 0.94 ± 0.5.
FFWRHLESGMGFHKACSHGG returned an amyloid nucleation score of 0.005 ± 1.7.
With YMEKWAWRVVNESCASVVPP, the amyloid nucleation score was -0.272 ± 0.89.
ACTSLASFHYVLHPKYSCRV returned an amyloid nucleation score of 1.2 ± 0.76.
IGLVCCCSSFEFMRWY: the amyloid nucleation score turned out to be 2.49 ± 0.47.
Turning to SWRSSTCSALVQGQYKA, the amyloid nucleation score was -0.051 ± 0.32.
YNSVLVTYYCKFSHTDSDSI: the amyloid nucleation score amounted to 3.04 ± 0.18.
Consider LGSRFMRV, for which the amyloid nucleation score worked out at 0.635 ± 1.2.
KTMMIGFNNMWGGVQ registered an amyloid nucleation score of 3.34 ± 0.21.
In turn, LSIAHYGLNQSMSVRYREST came in with an amyloid nucleation score of 0.771 ± 0.66.
Substance QFVMINYSSSNVASPNLLRI registered an amyloid nucleation score of 0.94 ± 0.3.
In the case of SLNGMTYVSMIVRSD, the amyloid nucleation score turned out to be 1.41 ± 0.39.
As for IYQLDVLGFDFN, the amyloid nucleation score result was “inactive”.
Regarding TLMNHGRESLGWFD, the amyloid nucleation score was -0.828 ± 0.66.
TYTCVNPVGHFTGGNRGILW gave an amyloid nucleation score of 0.425 ± 1.1.
The same measure for LCLGCGYGEETI: 0.069 ± 0.37.
The same measure for VAKSRCYTQCGLGYLSRKLA: “inactive”; for SLLTCILGFPSCPGASMMFQ: 7.057 ± 0.067.
Take GYGFFWCDCYRYDRGSRWTG: the amyloid nucleation score was 1.93 ± 0.15.
Regarding CHNVVLFVVTQSMCEVSGGW, the amyloid nucleation score result was “inactive”.
As to YTYDLYVTSVLNVSRESSHC, the amyloid nucleation score was -0.343 ± 1.4.
Turning to GGILPLTCSFVRTSIDQIGG, the amyloid nucleation score was -0.154 ± 0.41.
For SKYIGVVSPTWLH, the amyloid nucleation score is 0.428 ± 1.2.
In the case of FSCFLMEISKGRGH, the amyloid nucleation score came to 4.18 ± 0.11.
The same measure for PVLSTYFHAKLQNTWMPGNR: -0.941 ± 0.77; for RRRRSDKDVYPFQSFMFNVV: 0.476 ± 0.3; for NTYVYNDKGVRNIWKKLVYT: “inactive”.
As for NYIGYLYLFDFCEHDLCRCF, the amyloid nucleation score was 6.62 ± 0.074.
NEGIMPLVNHSKQEEPGVYR: the amyloid nucleation score came out at 0.753 ± 0.57.
On to DILQDFIGQPLRSN, for which the amyloid nucleation score was 1.04 ± 0.6.
Turning to FESKYNTP, the amyloid nucleation score worked out at 0.41 ± 0.47.
The same measure for SNFKK: -1.06 ± 0.64; for PYWVYEHSTC: -0.726 ± 0.63; for VCAQFSRGRIFTAIVIGWTQ: 0.857 ± 0.64.
Consider WPASLSSCIS, for which the amyloid nucleation score is -0.047 ± 0.66.
The value for IGWFHHFHHATLHRAISVFL was 0.633 ± 0.42.
With TAYSNG, the amyloid nucleation score was -0.814 ± 0.74.
Turning to VRLFLCFARSMDVRYFILVG, the amyloid nucleation score turned out to be 0.459 ± 0.57.
Take ITGGVVWEHS: the amyloid nucleation score came to 0.358 ± 1.
In the case of SACFMMGLDDWCDSR, the amyloid nucleation score is -0.529 ± 0.35.
CVMYSRGFYCADCVCNLMPC yielded an amyloid nucleation score of 4.85 ± 0.053.
The same measure for VMFTTRSWSGDNVFLCV: “inactive”; for LSWFC: -0.504 ± 0.43; for SINVVLAINGTAHCNFSASL: 4.66 ± 0.067.
The same measure for DYNLVSRYVEPSRLVGFLRI: -0.226 ± 0.73.
The value for SRLQLNWLQPRWY was 4.27 ± 0.077; that for GTIENFHGVTN was 0.413 ± 0.49; that for TLDYVSYWGFTIWYAFMMVL was “inactive”.
In turn, RQLFIGGAPDLC had an amyloid nucleation score of 0.216 ± 0.59.
LYTIRTYPSLLKCDSPLN: the amyloid nucleation score was -1.01 ± 0.78.
With CQVPSGESNDSPVLRHI, the amyloid nucleation score was -0.138 ± 0.43.
Substance VLMMLNGTDVKWMESANELS returned an amyloid nucleation score of 0.49 ± 0.41.
Regarding KLMVHRNDRNPMY, the amyloid nucleation score is -0.318 ± 0.63.
Take YSFLNYLLTRFDIIFLAAED: the amyloid nucleation score entry is “inactive”.
Take QGSDASVGTAVGSTWEVCCC: the amyloid nucleation score was -0.334 ± 0.36.
Take VDLNSGQSMNLGTYECRSNV: the amyloid nucleation score is -1.49 ± 1.8.
With LGFAW, the amyloid nucleation score came to 0.003 ± 0.45.
In the case of ASRILV, the amyloid nucleation score is -0.552 ± 0.6.
The same measure for REEAVSVGHSRFGFWIVFGG: -0.264 ± 0.36.
Substance KTANGNCHENSQSDVFKSVS had an amyloid nucleation score of 0.346 ± 0.31.
For LWLTFFSQ, the amyloid nucleation score is 2.35 ± 0.11.
For FVTANMTKLFTLWNWRLPGK, the amyloid nucleation score stood at 0.583 ± 0.29.
For TQDIILDNSHDATHQHTRRA, the amyloid nucleation score is -0.243 ± 1.
Consider GQICAWPITMVWAAGR, for which the amyloid nucleation score is -0.391 ± 1.5.
The value for LLGYLAMCS was 1.01 ± 0.23; that for NRIRRWWTFRVLGDSQKCVD was 0.411 ± 1.
The value for NYYDSRFGLHIVLELWVARL was 0.431 ± 0.2.
IPVILSSSNYSDSKPGL yielded an amyloid nucleation score of 0.964 ± 0.6.
For GIRCISLRKGHAGW, the amyloid nucleation score is -1.65 ± 2.4.
The same measure for RFMKPTMVWL: 0.005 ± 1.4; for YIWRNKKSAIRCDSKTVRRN: -0.286 ± 0.35.
The value for SYGSVCNDNQSNRRYVHIHM was 2.89 ± 0.22.
The same measure for IFYLTSVFVFSLLKFMTCER: -1.17 ± 2.4.
Consider AFNGVSNLEWL, for which the amyloid nucleation score was -0.18 ± 1.7.
The same measure for LYHGVYPKFLYKLVVESSLS: -1.79 ± 1.7.
LTRAWSGWYVTFMGGEILIR: the amyloid nucleation score is -0.118 ± 0.49.
Consider SAVLFIEFCVLIVVMFSIMM, for which the amyloid nucleation score was -0.241 ± 1.2.
KNVYDYFWLDNCYAIDIASM returned an amyloid nucleation score of 0.427 ± 0.41.
Consider FLFRFQKCLFNCFVLGLVSR, for which the amyloid nucleation score is -0.206 ± 0.53.
The same measure for IFFCWTMFRS: 1.28 ± 0.21.
Regarding NCVRSCISMQVYCTPAVVMY, the amyloid nucleation score worked out at 5.483 ± 0.053.
With NYYIRRTCMSTYYVRVLIKS, the amyloid nucleation score was found to be 0.522 ± 0.39.
With YLYVGS, the amyloid nucleation score was -0.352 ± 0.37.
For the substance RIKYAWFCVFGTWNRIRVRI, the amyloid nucleation score stood at 1.1 ± 0.68.
TFFYKDSDRDSCMGMLLIVC had an amyloid nucleation score of 0.295 ± 0.44.
The same measure for GSSTMIGMANSFVVGLDSNE: “inactive”; for RYRDYSRRIDCLCYVSVPVY: 0.564 ± 0.4.
As to CYSVIRREQNLNILV, the amyloid nucleation score is 1.71 ± 0.53.
The same measure for SFEWSSFTYFSNFWWLEPNT: 0.738 ± 0.65.
For the substance AYICYLILFQSQRVW, the amyloid nucleation score was -0.827 ± 1.7.
Consider HVFVLLPSKFADLLKKPVLL, for which the amyloid nucleation score was -0.894 ± 1.7.
NLECFTCFFLYTIDMNLKP gave an amyloid nucleation score of 4.94 ± 0.053.
In turn, LLATCVRVECY gave an amyloid nucleation score of 1.58 ± 0.51.
The value for RLCAINHPLCTFSQTMAWVH was 0.272 ± 0.29; that for VVVGDSPNGNEEDDWSSC was -2.03 ± 2.7; that for VRTLRTLAGLRRLLINKS was -0.137 ± 0.54.
The same measure for VVVCSNLMYLNCNWAATNNL: 7.163 ± 0.047.
In turn, NACIQVTGRCCIACVVEFWY came in with an amyloid nucleation score of 1.32 ± 0.38.
Turning to YNVGLLGLFRCYAQKVGLWE, the amyloid nucleation score entry was “inactive”.
IWLCVYNGM displayed an amyloid nucleation score of 4.98 ± 0.12.
The value for LHAYTLSYGLLVLSARSHEL was -0.01 ± 0.67; that for SSMNSWTDFFHFCST was 0.032 ± 0.97.
In the case of NRRMFV, the amyloid nucleation score is -1.13 ± 0.48.
In turn, NYHFDWLRFFRHQREVGEVA came in with an amyloid nucleation score of 0.4 ± 0.8.
The same measure for HIPNDARRLFGSMGVSRASA: -0.407 ± 1.
The same measure for IHNFIVSRDRMTGENGSGCM: -0.944 ± 0.41.
The same measure for TAGCICPCKQAVYGICQSRT: -0.447 ± 0.71.
Regarding ICDYPIVMRKYPVS, the amyloid nucleation score is -1.68 ± 1.4.
Regarding KSCAHSYEFHHCNCAVVFTL, the amyloid nucleation score came out at 6.6 ± 0.051.
In the case of QRHSLNDNCRCLRYPQHSPN, the amyloid nucleation score turned out to be 1.07 ± 0.73.
With FYTLKFMVKALTVKKGVCVV, the amyloid nucleation score result is “inactive”.
On to NRIMY, for which the amyloid nucleation score was -0.09 ± 0.2.
As for HPLQMISCNKHIQLANMQFR, the amyloid nucleation score was 0.795 ± 0.37.
In turn, APLALSGRVCFWSWFCPLFV had an amyloid nucleation score of 5.76 ± 0.084.
Turning to RLFWLRNLPLWASYK, the amyloid nucleation score came to 0.07 ± 0.47.
The same measure for REGNVSYYSFGL: -1.48 ± 1.4; for GMLGDVTVYLACRLLISRFL: “inactive”; for VYSMWTERQFLGMILGGEAG: -0.091 ± 0.85.
In turn, TVMHSAMIYILVPVSGSGQV came in with an amyloid nucleation score of 5 ± 0.064.
Consider RPRICLWWSLNQMDVWNRDR, for which the amyloid nucleation score was 2.17 ± 0.31.
Take PIMWCWHAVMSLS: the amyloid nucleation score entry is “inactive”.
For the substance IPPNSWMKSRNCTKLTARVY, the amyloid nucleation score is -0.312 ± 1.4.
GEVFFLVRSSVVCWISLICA: the amyloid nucleation score is -0.109 ± 0.39.
FPENGLRSFSCPLVH showed an amyloid nucleation score of 0.382 ± 0.66.
Regarding MGAWINYIAPTRYYLMDFFW, the amyloid nucleation score is -1.7 ± 2.4.
RKRSSRVIDVTGRWAVLTYP: the amyloid nucleation score was 0.074 ± 0.46.
Consider MPLKVSSMDLGRIKE, for which the amyloid nucleation score was -0.333 ± 0.41.
The same measure for GFWVWSSSRRCLIVRFQVMG: -0.373 ± 0.56.
Consider CMSVETLTEMVYFKSYTL, for which the amyloid nucleation score worked out at 0.257 ± 0.42.
TSSCLVYL: the amyloid nucleation score is -0.413 ± 0.55.
LLFHSGWMMNGNPWACWYRE registered an amyloid nucleation score of 1.89 ± 0.25.
